Experimental data published in US20260335456A1, “ANTIBODY-DRUG CONJUGATE HAVING CAMPTOTHECIN-BASED DRUG LINKED TO ANTIBODY HAVING LOW ANTIGEN-BINDING AFFINITY THROUGH LINKER” (PINOTBIO, INC., priority 2022, published 2026).
Where two headings read alike, the source gives them in different places.

Experiments:
[1] = tested on: EGFR; details: cited from earlier work
[2] = tested on: various metastatic solid tumors; details: 8 mg/kg to 18 mg/kg; cited from earlier work
[3] = tested on: metastatic epithelial cancers; details: cited from earlier work
[4] = tested on: patients treated with Sacituzumab Govitecan; details: cited from earlier work
[5] = tested on: cells with an ABCG2 efflux pump; assay: ABCG2 efflux pump resistance, PBX-001 versus Trodelvy; format: cell-based
[6] = tested on: liver; details: versus parent hRS7 IgG; U.S. Pat. No. 9,629,926 B; cited from earlier work
[7] = tested on: MDA-MB-453 (HER2++) and FaDu (HER2+) cell lines; assay: Cell viability test in MDA-MB-453 and FaDu; format: cell-based; details: 3 days, FIG. 10
Experimental: Cell viability assay was performed on MDA-MB-453 (HER2++) cell line and FaDu (HER2+) cell line in the same manner as Example 1-2.

[8] = tested on: FaDu cell line; assay: Western blot of DDX5 and anti-apoptotic proteins in FaDu; format: cell-based; details: 0, 10, 100 nM
Experimental: 1-1: Confirmation of Suppressive Activity of Expression of Cancer-Related Survival Genes of DDX5, Survivin, Mcl-1, XIAP and cIAP2 Through Western Blot
200,000 FaDu cell lines were seeded per well in a 6-well plate and incubated at constant temperature (37 °C, 5% CO2). […] It was incubated at constant temperature (37 °C, 5% CO2) for 24 hours. The well was treated with 100 μL of RIPA buffer dissolved in protease inhibitor cocktail. […] Protein concentration was determined through protein assay.
Electrophoresis was performed on the gel at 60V.
7 sheets of activated filter paper, PVDF membrane, gel and 7 sheets of filter paper were placed in order in the cassettes of the Trans-Blot® Turbo™ Transfer System, and the lid was closed, and after being inserted into the machine, the protocol started.
The transferred membrane was immersed in blocking buffer and incubated at constant temperature (RT, 1h). Next, it was incubated at 4 °C overnight in primary antibody solution. It was rinsed with TBST buffer for 3 minutes (repeated 3 times). Incubation was performed (RT, 1h) in a secondary antibody solution conjugated with HRP. It was rinsed with TBST buffer for 3 minutes (repeated 3 times).
After soaking the membrane in the ECL substrate for 3 to 5 minutes, the signal was determined by using the ChemiDoc™ MP Imaging System.

[9] = Lactone to carboxylate form conversion in pH 7.4; format: physicochemical
Experimental: 3-2. Lactone to Carboxylate Form Conversion in pH 7.4
Afterwards, it was centrifuged at 4 °C, 2 minutes, and 13,000 RCF conditions, and the supernatant was used as a sample.
The column used was Cortecs C18 2.7 μm, 4.6×50 mm Column, and analysis was conducted under the following conditions. 1) 20 minutes: 5% B, 2) sample injection, 3) 2 minutes: 5% B, 4) 10 minutes: 5% B→50% B, 5) 1 minute: 50% B.
In order to measure changes over time, the sample chamber was maintained at 37 °C, and the sample was set to be injected every measurement time. The measurement times were 0, 20, 40, 60, 90, 120, 180, 240, 300, 360, 480, 600 and 720 minutes.
The content was calculated from the peak area of each lactone and carboxylate. Since the absorption coefficients of lactone and carboxylate are different, the lactone area was obtained by multiplying the carboxylate area by the equation below.

[10] = tested on: A549; assay: Cell viability assay in A549; format: cell-based; details: A549, FIG. 9
Experimental: After 24 hours, 100 μL of the drug at 9 concentrations (serial dilution of 1/5 from 1,000 nM) was treated with the cells. […] In this case, a control group that was not treated with the drug (drug concentration 0) was also prepared. It was cultured at constant temperature (37 °C, 5% CO2) for 3 or 6 days. 100 μL of CellTiter-Glo reagent (using CellTiter-Glo® Luminescent Cell Viability Assay kit (Promega, G7571)) was added to each well and pipetted. After incubation at constant temperature (RT) for 10 minutes, luminescence was measured.

[11] = PBX-7016 pharmacokinetic profile in NOD SCID mice; format: in vivo
[12] = tested on: A549 cell line; assay: Western blot of DDX5 and anti-apoptotic proteins in A549; format: cell-based
[13] = tested on: EGFR; details: cited from earlier work; remark: listed apart in the source
[14] = tested on: patients; details: phase 1 studies; cited from earlier work
[15] = tested on: relapsed glioblastoma; details: cited from earlier work
[16] = tested on: normal skin and kidney cells; details: compared with cetuximab; cited from earlier work
[17] = tested on: patients; details: cited from earlier work
[18] = tested on: FaDu Xenograft model; assay: PBX-001 in FaDu Xenograft model; format: in vivo; details: DAR 8, FIGS. 12 and 13
[19] = target: T1, Trop2 (Homo sapiens, UniProt P09758); assay: PBX-001 in vitro and in vivo efficacy versus Trodelvy; details: FIGS. 11 to 13
T1 sequence (P09758 27-323): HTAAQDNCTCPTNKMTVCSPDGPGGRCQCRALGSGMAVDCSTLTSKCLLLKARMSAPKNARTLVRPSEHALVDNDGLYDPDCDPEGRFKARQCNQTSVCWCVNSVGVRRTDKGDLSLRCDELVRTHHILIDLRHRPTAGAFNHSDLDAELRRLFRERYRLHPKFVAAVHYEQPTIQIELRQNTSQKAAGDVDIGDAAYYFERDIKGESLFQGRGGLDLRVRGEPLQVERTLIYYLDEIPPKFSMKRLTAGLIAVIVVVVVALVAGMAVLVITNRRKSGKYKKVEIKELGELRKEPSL

[20] = tested on: non-human primate; assay: PBX-001 non-human primate toxicity study; format: in vivo

Compound: panitumumab: antibody drug targeting EGFR
- binding affinity relative to nimotuzumab [1]: more than 10 times

Compound: Sacituzumab Govitecan: humanized IgG linked to SN-38 through a pH-sensitive linker
- dose-limiting toxicity [2]: neutropenia
- anemia, any grade ([3]; 8 mg/kg): 38%
- anemia, grade 3 or higher ([3]; 8 mg/kg): 13%
- constipation, any grade ([3]; 8 mg/kg): 33%
- diarrhea, any grade ([3]; 8 mg/kg): 53%
- diarrhea, grade 3 or higher ([3]; 8 mg/kg): 4%
- dose reductions ([3]; 8 mg/kg): 19%
- fatigue, any grade ([3]; 8 mg/kg): 61%
- grade 3 or higher neutropenia after the first dose ([3]; 8 mg/kg): 21%
- hair loss, any grade ([3]; 8 mg/kg): 46%
- leukopenia, grade 3 or higher ([3]; 8 mg/kg): 6%
- nausea, any grade ([3]; 8 mg/kg): 59%
- neutropenia, any grade ([3]; 8 mg/kg): 42%
- neutropenia, grade 3 or higher ([3]; 8 mg/kg): 30%
- vomiting, any grade ([3]; 8 mg/kg): 36%
- anemia, any grade ([3]; 10 mg/kg): 42%
- constipation, any grade ([3]; 10 mg/kg): 37%
- diarrhea, any grade ([3]; 10 mg/kg): 62%
- diarrhea, grade 3 or higher ([3]; 10 mg/kg): 10%
- dose reductions ([3]; 10 mg/kg): 28%
- fatigue, any grade ([3]; 10 mg/kg): 52%
- grade 3 or higher neutropenia after the first dose ([3]; 10 mg/kg): 47%
- hair loss, any grade ([3]; 10 mg/kg): 37%
- nausea, any grade ([3]; 10 mg/kg): 63%
- neutropenia, any grade ([3]; 10 mg/kg): 58%
- neutropenia, grade 3 or higher ([3]; 10 mg/kg): 36%
- vomiting, any grade ([3]; 10 mg/kg): 43%
- diarrhea, all grade ([4]; all treated patients): 65%
- neutropenia, any grade ([4]; all treated patients): 61%
- febrile neutropenia ([4]; patients): 7%
- neutropenic colitis ([4]; patients): 0.5%
- resistance through ABCG2 efflux pump [5]: resistant

Compound: hRS7-CL2A-SN-38: Trop-2 ADC of hRS7 with CL2A-SN-38
- liver uptake [6]: two-fold higher liver uptake

Compound: CC[C@@]1(O)C(=O)OCc2c1cc1n(c2=O)Cc2c-1nc1cc3c(c4c1c2[C@@H](NC(=O)[C@@H](C)O)CC4)OCO3 [PBX-7016]
- IC50 compared to Dxd [7]: IC50 of the same or higher level than Dxd
- DDX5 degradation ranking ([8]; FaDu and A549): followed by 7011, 7016 and 7014
- expression of anti-apoptotic proteins ([8]; Survivin, cIAP2, Mcl-1, XIAP, 24 hours): decrease in the expression of Survivin, cIAP2, Mcl-1 and XIAP as the concentration increased
- rate of conversion from lactone to carboxylate form ([9]; pH 7.4, 37 °C): 0.8 % per minute
- degraded at 3 µM ([9]; pH 7.4, 37 °C, PBS with 10% DMSO, read-out: carboxylate form formed): > 86%
- lactone to carboxylate conversion versus reference compounds ([9]; pH 7.4, reference: exatecan, DXd, SN-38, FL118): faster and at a higher rate than other reference compounds
- efficacy / IC50 in ABCG2-overexpressing cells [10]: still maintained strong efficacy
- plasma concentration, individual mice ([11]; IP 1 mg/kg, 4 h, Mouse 4-6): BLOQ
- plasma concentration, individual mice ([11]; IP 1 mg/kg, 12 h, Mouse 4-6): BLOQ
- plasma concentration, individual mice ([11]; IP 1 mg/kg, 24 h, Mouse 4-6): BLOQ
- plasma concentration, individual mice ([11]; IP 1 mg/kg, 48 h, Mouse 4-6): BLOQ
- plasma concentration, individual mice ([11]; IV 1 mg/kg, 4 h, Mouse 1-3): BLOQ
- plasma concentration, individual mice ([11]; IV 1 mg/kg, 12 h, Mouse 1-3): BLOQ
- plasma concentration, individual mice ([11]; IV 1 mg/kg, 24 h, Mouse 1-3): BLOQ
- plasma concentration, individual mice ([11]; IV 1 mg/kg, 48 h, Mouse 1-3): BLOQ
- clearance from the blood ([11]; intravascular or intraperitoneal, mice): cleared from the blood very quickly
- dual mechanism (topoisomerase I inhibition and DDX5 degradation) [12]: dual MoA that acts as a degrader of DDX5 (p68)
- DDX5 inhibition ([12]; FIGS. 7 and 8): inhibits DDX5 in a concentration-dependent manner
- Survivin, Mcl-1 inhibition ([12]; FIGS. 7 and 8): observed to inhibit Survivin, Mcl-1
- comparison with PBX-7014 ([12]; FIGS. 7 and 8): worked better than PBX-7014
- DDX5 degradation ranking ([12]; FaDu and A549, 0, 10, 100 nM): followed by 7011, 7016 and 7014

Compound: ABX-EGF: fully humanized IgG2 monoclonal antibody to EGFR
- affinity for EGFR versus cetuximab [13]: higher affinity for EGFR than cetuximab
- most common toxicity [14]: skin toxicity

Compound: ABT-414: ADC targeting EGFR variant III
- monotherapy efficacy [15]: promising monotherapy efficacy

Compound: Nimotuzumab: humanized IgG1 EGFR-targeting antibody
- binding to normal skin and kidney cells [16]: much less binding than cetuximab
- side effects severity ([17]; humans): only mild to moderate in severity
- incidence of severe acneiform rash and gastrointestinal mucosal toxicity ([17]; patients): much lower incidence

Compound: PBX-001: ADC of humanized anti-Trop2 antibody hRS7, FL118 and CL2A linker system
- anticancer efficacy and weight loss [18]: excellent anticancer efficacy without weight loss
- in vitro and in vivo efficacy versus Trodelvy [19]: better efficacy than Trodelvy
- resistance through ABCG2 efflux pump [5]: not affected
- safety [20]: excellent safety
